Consider four molecules from PMC2131756, “Grb7 SH2 domain structure and interactions with a cyclic peptide inhibitor of cancer cell migration and proliferation” (BMC Structural Biology, 2007).

The subject of one data set is breast cancer cells. The note with it: co-treatment with cell permeable G7-18NATE peptide, ref [19]; cited from earlier work.
The target of data set [1] is pY1139 phosphopeptide (ErbB2) (Homo sapiens) (UniProt P04626). The note with it: cited from earlier work.
The next data set has as its system full-length Grb7. Put plainly: Analytical ultracentrifugation: dimerisation of full-length Grb7. The format is binding, human. How it is done:
(§1) Figure 4 Sedimentation equilibrium analysis of the Grb7 SH2 and Grb7. (a) Absorbance at 280 nm verses radius data at sedimentation equilibrium for Grb7 SH2 at an initial loading concentration of 36 μM. The data collected at 14,000 rpm (circles), 16,600 rpm (squares), 24,300 rpm (diamonds) and 28,800 rpm (triangles) were fitted simultaneously using the nonlinear regression program. (b) Absorbance at 280 nm verses radius data at sedimentation equilibrium for Grb7 at an initial loading concentrations of 12 μM. The data collected at 10,000 rpm (circles) and 11,800 rpm (squares) were fitted simultaneously using the nonlinear regression program NONLIN [77]. The solid line represents the calculated fit to a monomer-dimer model. […]
(§2) Grb7 SH2 domain and full-length Grb7 were analysed at loading concentrations of A280 values of 0.1, 0.3 and 0.6. […] Absorption profiles were recorded at 280 and 360 nm with automatic dialysate absorption compensation. The data were recorded in 0.001-cm steps and ten scans were averaged to produce each profile. The system was deemed to be in equilibrium when profiles recorded 4 h apart were identical. The data were analysed by fitting models of association to the absorbance versus radial position distribution using the program NONLIN [48, 49]. […] The density of the buffer solution was calculated to be 1.00379 g/ml using the program […] v1.08 [74].

In the next data set the target is T1, Grb7 SH2 domain (Homo sapiens, UniProt Q14451).
T1 construct: encoding residues 415-532 of human Grb7; GST (N, cleaved yes); made in house; host or cells: Escherichia coli BL21(DE3).pLysS
Put plainly: Analytical ultracentrifugation: dimerisation of Grb7 SH2 domain. The format is binding. The procedure:
as §1, §2

Data set [2] concerns the molecule itself. Nature of the data set: AUC; sedimentation equilibrium, 20°C, Grb7 SH2 at an initial loading concentration of 36 μM, 14,000-28,800 rpm, 50 mM MES pH 6.6, 100 mM NaCl, 1 mM DTT; global fit to a monomer-dimer model (NONLIN); dimer to monomers.

Entries after “also recorded” stand apart in the source; their conditions may differ.

Consider `COc1cccc2c1C(=O)c1c(O)c3c(c(O)c1C2=O)C[C@@](O)(C(=O)CO)C[C@@H]3O[C@H]1C[C@H](N)[C@H](O)[C@H](C)O1` [Doxorubicin], for which, in the data set on breast cancer cells, the “change of drug EC50 on co-treatment (in words)” value was “significant reduction of the drug EC50 value”.

In the case of Grb7 SH2 (from UniProt Q14451), the Kd in data set [1] is 2.3 µM.

Consider “full-length Grb7: Full-length Grb7 (residues 1 – 532)”, for which, in the data set with full-length Grb7, the “dimer formation (in words)” value was “in the μM range; also recorded: forms dimers in vitro with a similar affinity to that exhibited by the SH2 domain alone; also recorded: same order of magnitude as that obtained for the SH2 domain alone”.

B1: Grb7 SH2 domain (residues 415-532 of human Grb7) (domain or fragment)
chain: GSPASGTSLSAAIHRTQLWFHGRISREESQRLIGQQGLVDGLFLVRESQRNPQGFVLSLCHLQKVKHYLILPSEEEGRLYFSMDDGQTRFTDLLQLVEFHQLNRGILPCLLRHCCTRVAL
notes: first two of the 7 N-terminal residues of the construct, printed as GSPASGT; 15N-labelled (minimal medium with 15NH4Cl) for the NMR titration, unlabelled otherwise; Expected mass 13,672 g/mol; Residues 420-532 are seen in the crystal structure; also called 15N-Grb7 SH2
Turning to B1, the “dimer association compared with previous experiments at 4 °C (in words)” value in the data set with Grb7 SH2 domain (20 °C versus 4 °C, ref [38]) is recorded as “slightly weaker association”. For the same molecule, the “dimer formation (in words)” value with Grb7 SH2 domain (analytical ultracentrifugation) is reported as “in the μM range”. In data set [2], the Kd stood at 21.8 µM and the “stoichiometry N” value is 2.

As usually defined, the Kd is the concentration at which binding is half-saturated. Usually stoichiometry N stands for the number of molecules, sites or subunits per partner or assembly.
